Publication PMC6908506, “Development of Foot-and-Mouth Disease Virus-Neutralizing Monoclonal Antibodies Derived From Plasmablasts of Infected Cattle and Their Germline Gene Usage” (Frontiers in Immunology, 2019)

B1: F136 (antibody, V domains shown)
VH: QVQLRESGPSLVKPSQTLSLTCTVSGFSLSSKGVHWIRQAPGKALEWLGSTWSFGSAFNPALKSRLSITKDNSKSQVALSLSTVTPEDTATYYCARELYNGGSTWDAINGYNEERYYFDAWGQGLLVTVSS
VL: QAVLTQPSSVSGSLGQSVSITCSGSSSNVGYGNYVSWFQQIPGSAPRMLIYGATSRASGVPYRFSGSRSGNTATLTINSLQAEDEADYFCASPDSSSSGYFAVFGSGTTLTVL
B2: E32 (antibody, V domains shown)
VH: QVQLRESGPSLVKPSQTLSLTCTVSGFSLSNYALNWVRQAPGKALECLGGIGPSGHTDYNPALKSRLIITKDNSKNQVSLSVSSVTPEDTATYICARDSGIYGTSGWGCIGGFDDNYIDAWGHGLLVTVSS
VL: QAVLTQPSSVSGSLGQRVSITCSGSSNNIGAHGVGWYQQIPGSGLRTIIYNNSKRPSGVPDRFSGSKSGNTATLTISSLQAGDEADYFCATSDYSTRSSAFGSGTTLTVL
B3: B51 (antibody, V domains shown)
VH: QVQLRESGPSLVKPSQTLSLTCTVSGFSLSSYGVIWVRQAPGKALECLGQITTGGITGYNPALKSRLSITKDNSEGQVSLSLSSVTTEDTATYYCVKEHDNYGDFSGGCLHAAYVDTWGQGLLVTVSS
VL: QAVLTQPSSVSGSLGQRVSITCSGSSSNIGLYAVGWYQQVPGSGLRSIIYSSRSRPSGVPDRFSGSKSGNTATLTISSLQAEDEADYFCVAYDSSSDSAIFGSGTTLTVL
B4: E28 (antibody, V domains shown)
VH: QVQLRESGPSLVKPSQTLSLTCTISGFSLSDYAVAWVRQAPGKAPEWVGGISTGGRTNYNPTLESRLSITKDNAKSQISLTVSSVTPEDTATYLCLRLACYDHEGYRCFGYDLNWGVDAWGQGLLVSVSS
VL: QAVLTQPSSVSGSLGQRVSITCSGSSTNIGTYYVGWYQQVPGSGLRTIIYGTTNRPSGVPDRFSGSKSSGNTATLTISSLQAEDEADYFCVTYDSTITPSAVFGSGTTLTVL
B5: E53 (antibody, V domains shown)
VH: QVQLRESGPSLVKPSQTLSLTCTVSGFSLSSYAVDWVRQAPGKALECLGGISRDGDISYNPALKSRLSITKDDSKSQVSLSLSSVTSEDTATYYCAKATDGGYFRSTYGCQGFTVNTYVDIWGQGFLVTVSS
VL: QAVLTQPSSLSGSLGQRVSITCSGSSGNIGTRDVSWYQQIPGSGLRTIIYGNSSRPSGVPDRFSGSRSGNTATLRIRSLQPEDEADYFCGSADYSSEIAVFGSGTTLTVL
B6: B81 (antibody, V domains shown)
VH: QVQLRESGPSLVKPSQTLSLTCTVSGFSLSNYAIGWVRQAPGKAPEWVVDTDVDGGTAYNPALKSRLSITKDNSKSQVSLSLNGVTPEDTATYYCVKLSRESAWLFFHVDAWGQGLLITISS
VL: QAVLTQPSSVSGSLGQSVSITCSGSSGNIGRYGVDWYQQVPGSGLRTIIYASSRRPSGVPDRFSGSKSGNTATLTISSLQAEDEADYFCAGGDENIIVPLFGAGTTLTVL
notes: also called HRP-B81
B7: A7 (antibody, V domains shown)
VH: QVQLRESGPSLVKPSQTLSLTCTVSGFSLSSYAVNWVRQAPGKALECLGGISSSGSTGYKPALKSRLSITKDNSKSQVSLSVSNVTPEDTATYYCVKSYWDYNDYGCCSGGNGVGFDAWGQGLLVTVSS
VL: QAVLTQPSSVSGSLGQRVSITCSGSSNNIGSYAVGWYQQVPGSGLRTIIYSSSSRPSGVPDRFSGSKSGNTATLTISSLQAEDEADYFCATADYSRSTAVFGSGTILTVL
B8: E9 (antibody, V domains shown)
VH: QVQLRESGPSLVKPSQTLSLTCTVSGFSLSNYAVSWVRQAPGKALECLGSISSDGNTGYNPALKSRLSITKDNSKSQVSLSVSSATPEDTATYYCTKCHYPGGCCGYWNDDHVDAWGQGLLVTVSS
VL: QAVLTQPSSVSGSLGQRVTITCSGSSSNIGMYDVGWYQQVPGSGLRTIIYGSSSRPSGVPDRFSGSKSGNTATLTIMSLQAEDEADYFCTTADYSSSTVVFGSGTTLTVL
B9: E10 (antibody, V domains shown)
VH: QVQLRESGPSLVKPSQTLSLTCTVSGFSLSSNGVVWVRQAPGKALEWVGCSRGEGSTFYNQALRSRLSITKDNSKSQVSLSVSSVTPEDTATYYCTKVYNGGCGRRGYDAAAYVDAWGQGLLVTVSS
VL: QAVLTQPSSVSGSLGQRVSITCSGRSNNIGGNGVGWYQQVPGSGLRTIIYGSSSRPSGVPDRFSGSKSGNTATLTISSLQAEDEADYFCATADYSSGTAVFGSGTTLTVL
B10: 62 (antibody, V domains shown)
VH: QVQLRESGPSLVKPSQTLSLTCTVSGFSLSDKDVGWVRQAPGTALEWLAVIYNAGSTSYNPTLESRLSITKDNSKSQVSLSLSSVTTEDTATYYCALGNYWAWGQGLLVTVSS
VL: QAALTQPSSVSGSLGQRVSITCSGSSSNIGRGNYVNWFQQIPGSAPRTLIYGATNRASGVPDRFSGSRSGDTATLTISPLQAEDEADYFCAAYDINGNAVFGSGTTLTVL
B11: B59 (antibody, V domains shown)
VH: QVQLRESGPSLVKPSQTLSLTCTVSGFSLSDYAVGWVRQAPGKALEWVGGISSGGTTCSKPALKSRLSITRDSSKSQVSLFVTSMTPEDTATYYCAKYFRHDYDVGCSYIMEAVDAWGQGLLVTVSS
VL: QAVLTQPSSVSGSLGQRVSITCSGSSSNVGRGNYVNWFQQIPGSAPRTLIYGATSRASGVPNRFSGSRSGNTATLTISSLQAEDEADYFCAVWDDNIRNAVFGSGTTLILL
B12: B54 (antibody, V domains shown)
VH: QVQLRESGPSLVKPSQTLSLTCTVSGFSLSSNAVVRVRQAPGKTLEWLGGICSGGATSFNPALKSRLSITKDNSKSQVSLSVSSVTPEDTATYYCMRVGSCFGCGDRCGYGYPYTYVDVWGQGLLVTVSP
VL: QAVLTQPSSVSGSLGQRVSITCSGSSSNVGTGNYVSWFQQIPGSAPRTLIYGATSRASGVPDRFSGSRSGNTATLTISSLQAEDEADYFCASYQIGNTAVFGSGTTLTVL
B13: E12 (antibody, V domains shown)
VH: QVQLRESGPSLVKPSQTLPLTCTVSGFSLSDYGVGWVRQAPGKALEWLGVIYYAGRTVYNPALKSRLSITKDNSKSQISLSLSSVITEDTATYYCTRCYEDYYYDCIDWGHRYDLWGQGLLVTVSS
VL: QAVLTQPSSVSGSLGQRVSITCSGSSSNVGTGNYVTWFQQIPGSAPRILIYGASSRVSGVPDRFSGSRSGNTATLTISSLQAEDEADYFCTSYESDYTAVFGSGTTLTVL
B14: E16 (antibody)
VH: QVQLRESGPSLVKPSQTLSLTCTVSGFSLSDKAVGWVRQAPGKALEWLGSIDGGEKTTYNPGLKSRLSITKDNSKNQVSLSVSSVSTEDSATYYCSIVYQKRERKCPDGYRPGTFCGSGINARDCRYDGCYASEHWQCCDTYTPGTSAYNFHIDAWGQGLLVTVSS
VL: QAVLTQPSSVSGSLGQRVSITCSGSSSNVGKGYVSWYQRIPGSAPRTLIYDDTSRASGVPDRFSGSRSGNTATLTISSLQVEDEADYFCASAEGSSSNAVFGSGTTLTVL
B15: B64 (antibody, V domains shown)
VH: QVQLRESGPSLVKPSQTLSLTCTVSGFSLSNYDVAWVRQPPGKALECLGGVSISGRTDYNPALKSRLSITKDNSKNQVSLSLSSVTTEDTATYYCAKFFGDYGYDYYGCGYGAGDHYVDAWGQGLLVAVSS
VL: QAVLTQPSSVSGSLGQRVSITCSGSSSNVGNGYVSWYQLIPGSAPRTLIYGDTSRASGVPDRFSGSRSGNTATLTISSLQAEDEADYFCASAEGSSSNAGFGSGTTLIVL
B16: E11 (antibody, V domains shown)
VH: QVQLRESGPSLVKPSQTLSLTCTVSGFSLNSYAVTWVRQAPGKALECLGSIGSRGGTGYNQALKSRLSITKNNSKSQVSLSVRSVTPEDTATYYCVKESGSGYWDDACWGFGVGDDYVDTWGHGLLVTVST
VL: QAVLTQPSSVSGSLGQRVSITCSGSSSNVGRGNYVSWFQQLPGAAPRTLIYAATSRASGVPDRFSGSRSGNTATLTISSLQAEEEAYYFCAVYDTSSKAAVFGSGTTLTVL
B17: 60 (antibody, V domains shown)
VH: QVQLRESGPSLVKPSQTLSLTCTISGFSLSDATVGWVRQASGKALEWLGAIWPSGSTGYNLGLKSRLTITKDNSKTQVFLSLNSLTPEDTATYHCTGGGIGFIWGQGLLVTVSP
VL: QAVLTQPSSVSGSLGQRVSITCSGSPNNVGLGNFVSWFQQIPGSAPRSLIYGATSRVSGVPDRFSGSRSMNTATLTISSLQAEDEADYFCASYERNNTGVFGSGTTLTVL
B18: E40 (antibody)
VH: QVQLRESGPSLVKPSQTLSLTCTASGFSLSDKAVGWVRQAPGKALEWLGGIDTGGNKDYNPGLKSRLSITKDNSKSQMSLSMSSVTTEDSATYYCTTVHQKTNTAKTCRDGHVDVSSCYGSSGCPRSGCCACRRWGGTACSICSSRIVTYTYEFHVDVWGQGLLVTVSS
VL: QAVLTQPSSVSGSLGQRVSITCSGSSSNVGNGYVSWYQLIPGSAPRTLIYGDTSRASGVPDRFSGSRSGNTATLTISSLQAEDEADYFCASPEDSSTNALFGSGTTLTVL
B19: F4 (antibody, V domains shown)
VH: QVQLRESGPSLVKPSQTLSLTCTVSGFSLSSSGVVWVRQAPGKALEWVGSLSSGGLTSRNPALKSRISITKDNSKSQVSLSMSSVTPEDTATYYCAKCGGFYGSTCNGYGSSYDFWGRGLLVTVSS
VL: QAVLTQPSSVSGSLGQRVSITCSGSSSNVGNGYVSWYQLIPGSAPRTLIYGDTSRASGVPDRFSGSRSGNTATLTISSLQAEDEADYFCASAEDSSSNAVFGSGTTLTVL
B20: E43 (antibody)
VH: QVQLRESGPSLVKPSQTLSLTCTASGFSLRDKAVGWVRHTPGKALEWIGSIDSSGNTGYNPGLKSRLSITKDNSKSQVSLSVSAVLSEDSATYYCTVVHQETRQEEGCPDGYLYDSRCGPGGGCSGRLCTRTPSARANDFCCTGRRIRTSTYQHHIDAWGQGLLVTVSS
VL: QAVLTQPSSVSGSLGQRVSITCSGSSSNVGNGYVSWYQLTPGSAPRTLIYGDTTRASGVPDRVSGSRFGNTATLTISSLQAEDEADYFCASAEDGNSNAVFGSGTTLTVL

Target: T1, FMDV O/Mya/98 146S antigen (Foot-and-mouth disease virus serotype …, UniProt G8JKC2, strain)
Test: cell-based or functional assay
Conditions: not given

Q: For B1, which “virus neutralizing test on BHK-21 cells, IC50” value is on record?
A: The value was 1.67 mg/L.

Target: T1, FMDV O/Mya/98 146S antigen
Test: ELISA
Conditions: both partners purified

Q: Does B2 bind?
A: Result: binds

Q: Does B3 bind?
A: Result: binds

Q: Does B4 bind?
A: Result: binds

Q: Does B5 bind?
A: Result: binds

Q: Does B6 bind?
A: Result: binds

Q: Does B7 bind?
A: Result: binds

Q: Does B8 bind?
A: Result: binds

Q: Does B9 bind?
A: Result: binds

Q: Does B10 bind?
A: Result: binds

Q: Does B11 bind?
A: Result: binds

Q: Does B12 bind?
A: Result: binds

Q: Does B13 bind?
A: Result: binds

Q: Does B14 bind?
A: Result: binds

Q: Does B15 bind?
A: Result: binds

Q: Does B16 bind?
A: Result: binds

Q: Does B17 bind?
A: Result: binds

Target: T1, FMDV O/Mya/98 146S antigen
Test: immunostaining of cells or tissue
Conditions: one partner purified

Q: Does B18 bind?
A: Result: binds

Q: Does B19 bind?
A: Result: binds

Q: Does B20 bind?
A: Result: binds
